Measurements from paper PMC11079029, “Intramolecular autoinhibition regulates the selectivity of PRPF40A tandem WW domains for proline-rich motifs” (Nature Communications, 2024).

B1: SF3B3 (protein, UniProt Q15393 1-1217, looked up)
Splicing factor 3B subunit 3: MFLYNLTLQRATGISFAIHGNFSGTKQQEIVVSRGKILELLRPDPNTGKVHTLLTVEVFGVIRSLMAFRLTGGTKDYIVVGSDSGRIVILEYQPSKNMFEKIHQETFGKSGCRRIVPGQFLAVDPKGRAVMISAIEKQKLVYILNRDAAARLTISSPLEAHKANTLVYHVVGVDVGFENPMFACLEMDYEEADNDPTGEAAANTQQTLTFYELDLGLNHVVRKYSEPLEEHGNFLITVPGGSDGPSGVLICSENYITYKNFGDQPDIRCPIPRRRNDLDDPERGMIFVCSATHKTKSMFFFLAQTEQGDIFKITLETDEDMVTEIRLKYFDTVPVAAAMCVLKTGFLFVASEFGNHYLYQIAHLGDDDEEPEFSSAMPLEEGDTFFFQPRPLKNLVLVDELDSLSPILFCQIADLANEDTPQLYVACGRGPRSSLRVLRHGLEVSEMAVSELPGNPNAVWTVRRHIEDEFDAYIIVSFVNATLVLSIGETVEEVTDSGFLGTTPTLSCSLLGDDALVQVYPDGIRHIRADKRVNEWKTPGKKTIVKCAVNQRQVVIALTGGELVYFEMDPSGQLNEYTERKEMSADVVCMSLANVPPGEQRSRFLAVGLVDNTVRIISLDPSDCLQPLSMQALPAQPESLCIVEMGGTEKQDELGERGSIGFLYLNIGLQNGVLLRTVLDPVTGDLSDTRTRYLGSRPVKLFRVRMQGQEAVLAMSSRSWLSYSYQSRFHLTPLSYETLEFASGFASEQCPEGIVAISTNTLRILALEKLGAVFNQVAFPLQYTPRKFVIHPESNNLIIIETDHNAYTEATKAQRKQQMAEEMVEAAGEDERELAAEMAAAFLNENLPESIFGAPKAGNGQWASVIRVMNPIQGNTLDLVQLEQNEAAFSVAVCRFSNTGEDWYVLVGVAKDLILNPRSVAGGFVYTYKLVNNGEKLEFLHKTPVEEVPAAIAPFQGRVLIGVGKLLRVYDLGKKKLLRKCENKHIANYISGIQTIGHRVIVSDVQESFIWVRYKRNENQLIIFADDTYPRWVTTASLLDYDTVAGADKFGNICVVRLPPNTNDEVDEDPTGNKALWDRGLLNGASQKAEVIMNYHVGETVLSLQKTTLIPGGSESLVYTTLSGGIGILVPFTSHEDHDFFQHVEMHLRSEHPPLCGRDHLSFRSYYFPVKNVIDGDLCEQFNSMEPNKQKNVSEELDRTPPEVSKKLEDIRTRYAF
B2: SF1 (protein, UniProt Q15637 2-639, looked up)
Splicing factor 1: ATGANATPLDFPSKKRKRSRWNQDTMEQKTVIPGMPTVIPPGLTREQERAYIVQLQIEDLTRKLRTGDLGIPPNPEDRSPSPEPIYNSEGKRLNTREFRTRKKLEEERHNLITEMVALNPDFKPPADYKPPATRVSDKVMIPQDEYPEINFVGLLIGPRGNTLKNIEKECNAKIMIRGKGSVKEGKVGRKDGQMLPGEDEPLHALVTANTMENVKKAVEQIRNILKQGIETPEDQNDLRKMQLRELARLNGTLREDDNRILRPWQSSETRSITNTTVCTKCGGAGHIASDCKFQRPGDPQSAQDKARMDKEYLSLMAELGEAPVPASVGSTSGPATTPLASAPRPAAPANNPPPPSLMSTTQSRPPWMNSGPSESRPYHGMHGGGPGGPGGGPHSFPHPLPSLTGGHGGHPMQHNPNGPPPPWMQPPPPPMNQGPHPPGHHGPPPMDQYLGSTPVGSGVYRLHQGKGMMPPPPMGMMPPPPPPPSGQPPPPPSGPLPPWQQQQQQPPPPPPPSSSMASSTPLPWQQNTTTTTTSAGTGSIPPWQQQQAAAAASPGAPQMQGNPTMVPLPPGVQPPLPPGAPPPPPPPPPGSAGMMYAPPPPPPPPMDPSNFVTMMGMGVAGMPPFGMPPAPPPPPPQN
B3: ATAD3A (protein, UniProt Q9NVI7 2-586, looked up)
ATPase family AAA …: SWLFGINKGPKGEGAGPPPPLPPAQPGAEGGGDRGLGDRPAPKDKWSNFDPTGLERAAKAARELEHSRYAKDALNLAQMQEQTLQLEQQSKLKEYEAAVEQLKSEQIRAQAEERRKTLSEETRQHQARAQYQDKLARQRYEDQLKQQQLLNEENLRKQEESVQKQEAMRRATVEREMELRHKNEMLRVEAEARARAKAERENADIIREQIRLKAAEHRQTVLESIRTAGTLFGEGFRAFVTDWDKVTATVAGLTLLAVGVYSAKNATLVAGRFIEARLGKPSLVRETSRITVLEALRHPIQVSRRLLSRPQDALEGVVLSPSLEARVRDIAIATRNTKKNRSLYRNILMYGPPGTGKTLFAKKLALHSGMDYAIMTGGDVAPMGREGVTAMHKLFDWANTSRRGLLLFVDEADAFLRKRATEKISEDLRATLNAFLYRTGQHSNKFMLVLASNQPEQFDWAINDRINEMVHFDLPGQEERERLVRMYFDKYVLKPATEGKQRLKLAQFDYGRKCSEVARLTEGMSGREIAQLAVSWQATAYASEDGVLTEAMMDTRVQDAVQQHQQKMCWLKAEGPGRGDEPSPS
B4: RBM17 (protein, UniProt Q96I25 2-401, looked up)
Splicing factor 45: SLYDDLGVETSDSKTEGWSKNFKLLQSQLQVKKAALTQAKSQRTKQSTVLAPVIDLKRGGSSDDRQIVDTPPHVAAGLKDPVPSGFSAGEVLIPLADEYDPMFPNDYEKVVKRQREERQRQRELERQKEIEEREKRRKDRHEASGFARRPDPDSDEDEDYERERRKRSMGGAAIAPPTSLVEKDKELPRDFPYEEDSRPRSQSSKAAIPPPVYEEQDRPRSPTGPSNSFLANMGGTVAHKIMQKYGFREGQGLGKHEQGLSTALSVEKTSKRGGKIIVGDATEKDASKKSDSNPLTEILKCPTKVVLLRNMVGAGEVDEDLEVETKEECEKYGKVGKCVIFEIPGAPDDEAVRIFLEFERVESAIKAVVDLNGRYFGGRVVKACFYNLDKFRVLDLAEQV
B5: SF3B2 (protein, UniProt Q13435 1-895, looked up)
Splicing factor 3B subunit 2: MATEHPEPPKAELQLPPPPPPGHYGAWAAQELQAKLAEIGAPIQGNREELVERLQSYTRQTGIVLNRPVLRGEDGDKAAPPPMSAQLPGIPMPPPPLGLPPLQPPPPPPPPPPGLGLGFPMAHPPNLGPPPPLRVGEPVALSEEERLKLAQQQAALLMQQEERAKQQGDHSLKEHELLEQQKRAAVLLEQERQQEIAKMGTPVPRPPQDMGQIGVRTPLGPRVAAPVGPVGPTPTVLPMGAPVPRPRGPPPPPGDENREMDDPSVGPKIPQALEKILQLKESRQEEMNSQQEEEEMETDARSSLGQSASETEEDTVSVSKKEKNRKRRNRKKKKKPQRVRGVSSESSGDREKDSTRSRGSDSPAADVEIEYVTEEPEIYEPNFIFFKRIFEAFKLTDDVKKEKEKEPEKLDKLENSAAPKKKGFEEEHKDSDDDSSDDEQEKKPEAPKLSKKKLRRMNRFTVAELKQLVARPDVVEMHDVTAQDPKLLVHLKATRNSVPVPRHWCFKRKYLQGKRGIEKPPFELPDFIKRTGIQEMREALQEKEEQKTMKSKMREKVRPKMGKIDIDYQKLHDAFFKWQTKPKLTIHGDLYYEGKEFETRLKEKKPGDLSDELRISLGMPVGPNAHKVPPPWLIAMQRYGPPPSYPNLKIPGLNSPIPESCSFGYHAGGWGKPPVDETGKPLYGDVFGTNAAEFQTKTEEEEIDRTPWGELEPSDEESSEEEEEEESDEDKPDETGFITPADSGLITPGGFSSVPAGMETPELIELRKKKIEEAMDGSETPQLFTVLPEKRTATVGGAMMGSTHIYDMSTVMSRKGPAPELQGVEVALAPEELELDPMAMTQKYEEHVREQQAQVEKEDFSDMVAEHAAKQKQKKRKAQPQDSRGGSKKYKEFKF

System: GFP-tagged PRPF40A-Nter-MUT
Assay: SILAC GFP-immunoprecipitation with quantitative mass spectrometry, mutant construct
Type: binding, human (Hela cells)
Settings: quantitative MS, Hela cells, protein by gene name
Protocol: The PRPF40A N-terminal region (isoform 2, residues 1-221) was PCR-amplified from RPE1 cDNA (ATCC, Cat# CRL-4000) cDNA. The sequence was amplified in two fragments and both fragments were combined by overhang. All PCRs were carried out using Q5 Polymerase (NEB) according to manufacturer’s protocol. The resulting PRPF40A N-terminal region was cloned into a GFP-expressing pcDNA5 vector (see pcDNA5 GFP vector in ref. [28]) using Q5 Site-Directed Mutagenesis Kit (NEB). Nter-MUT, containing the PPVP/PALPP motifs changed to AAAA/AAAAA, was obtained by mutating the N-ter-WW12-containing plasmid with Q5 site-directed mutagenesis. Plasmids were transformed into DH5alpha chemically competent cells. After culturing, DNA isolation was performed with either ZymoPURE Plasmid Miniprep Kit (Zymo Research) or QIAGEN Plasmid Plus Midi Kit (Qiagen). The sequence was confirmed by Sanger Sequencing (GATC Eurofins). All used oligonucleotides are shown in Supplementary Table 6.
Hela cells (ATCC, Cat# CCL-2, RRID:CVCL_0030) were cultured in DMEM SILAC medium (Thermo Fisher) supplemented with 10% filtered FBS (Sigma-Aldrich) and 1% penicillin-streptomycin (Thermo-Fisher). The SILAC medium contains either light (Arg0, Lys0), medium (Arg6, Lys4) or heavy (Arg10, Lys8) isotopes (Cambridge Isotopes Laboratories). Hela cells were cultivated for 14 days in SILAC medium to assure sufficient isotope incorporation. For transfection, 7 × 10^6 Hela cells were seeded in a 15 cm culture dish in 20 ml of respective SILAC medium and grown for 24 h. The cells were then transfected with 20 µg of plasmids expressing either GFP (Control), GFP-tagged N-ext-WW12 or GFP-tagged-N-ext-WW12-MUT utilizing 64 µl FuGENE (Promega) (ratio 1:3.2), according to manufacturer’s protocol.
24 h post-transfection, cells were washed twice in ice-cold PBS and harvested in 1 ml mRIPA buffer (50 mM Tris, 150 mM NaCl, 1 mM EDTA, 1% NP-40, 0.1% Na-deoxycholate), supplemented with 2 µl Turbo-DNase (Thermo Fisher) and 3 µl protease-inhibitor cocktail cOmplete (Sigma-Aldrich). Cell lysates were cleared by centrifugation at 16,000 × g, 4 °C, 15 min and concentration was measured using Pierce BCA Protein Assay kit (Thermo Scientific). The expressed constructs were pulled down by incubating 2.5 mg of lysate with 20 μl GFP-nanobody agarose beads (ChromoTek, GTA-20) for 1 h at 4 °C under constant agitation. Subsequently, beads were washed three times with mRIPA buffer without supplements, then eluted in 1X NuPAGE LDS sample buffer (Thermo Scientific). To detach the proteins from the beads, the eluate was heated to 70 °C for 10 min To evaluate the success of the immunoprecipitation, input (1%) and IP samples were analyzed on a NuPAGE 4–12% Bis-Tris-Acrylamide gel (Thermo Fisher) using NuPAGE MOPS SDS running buffer (Thermo Fisher). Proteins were stained using Sypro Ruby protein gel stain (Thermo Fisher) according to manufacturer’s protocol.
The eluted proteins of three SILAC states (light, medium, heavy) were combined. The proteins were then reduced in DTT, alkylated in iodoacetamide, and purified using the SP3 paramagnetic bead approach. This was followed by overnight enzymatic digestion using trypsin (1 µg per sample) in 50 mM ammonium bicarbonate at 37 °C. The peptide solution was then purified by solid phase extraction in C18 StageTips[99].
Peptides were separated by online reverse phase liquid chromatography using the EASY-nLC 1000 system (Thermo Scientific) in a 30-cm analytical column (inner diameter: 75 μm; heated at 50 °C) packed in-house with ReproSil-Pur 120 C18-AQ 1.9-μm beads (Dr. Maisch GmbH). The gradient separation was performed through a 105-min non-linear gradient of 1.6–32% acetonitrile with 0.1% formic acid at a nanoflow rate of 225 nl/min. The eluted peptides were sprayed directly by electrospray ionization into a Q Exactive Plus Orbitrap mass spectrometer (Thermo Scientific). […]

Molecule | Immunoprecipitation enrichment MUT vs WT, log2 FC
B1 | 0.8966
B2 | 0.9625
B3 | 1.016
B4 | 1.293
B5 | 0.8966
